Source: publication PMC5387714

How the values were obtained:
Phe176 CD16a (human) [1] = biological target: Phe176 CD16a (human) (UniProt P08637)
Val176 CD16a (human) = Val176 CD16a (human) (UniProt P08637); assay: MST; ligands (HER2, CD16a, FcRn) labelled with RED-NHS; 10 μL labelled ligand mixed with 10 μL gradient mAb; Monolith NT.115, 40% IR-laser power; fit with the Hill equation in Prism
Phe176 CD16a (human) [2] = biological target: Phe176 CD16a (human) (UniProt P08637); assay: as above
Human FcRn (human) = Human FcRn (human) (UniProt P55899); assay: as above
Chain of UniProt P55899 (P55899 24-297): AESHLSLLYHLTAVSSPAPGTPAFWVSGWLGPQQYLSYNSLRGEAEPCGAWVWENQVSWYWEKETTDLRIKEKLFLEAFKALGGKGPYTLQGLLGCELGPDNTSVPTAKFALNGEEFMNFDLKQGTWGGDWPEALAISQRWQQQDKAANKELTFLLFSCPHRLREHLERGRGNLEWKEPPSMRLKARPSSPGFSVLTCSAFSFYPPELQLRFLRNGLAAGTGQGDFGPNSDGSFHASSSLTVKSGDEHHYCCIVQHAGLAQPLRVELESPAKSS

Row | ADCC (LDH release), SK-BR-3 target cells, human PBMCs as effector cells, E/T 50/1; fold against pertuzumab^Fuc+SA+; allotype of the donors' FcγRIIIa not stated (Phe176 CD16a (human) [1]) | Kd (Val176 CD16a (human)) | Kd (Phe176 CD16a (human) [2]) | Kd (Human FcRn (human)) | Substance
1 | 20 fold | 0.02 nM | 0.13 nM | 0.82 nM | Pertuzumab^Fuc−SA− (antibody)
2 |  | 0.35 nM | 1.31 nM | 0.86 nM | Pertuzumab^Fuc+SA+ (antibody)
3 |  |  | 0.29 nM | 0.84 nM | Pertuzumab^Fuc−SA+ (antibody)
4 |  |  | 0.45 nM | 0.83 nM | Pertuzumab^Fuc+SA− (antibody)
